Data from the domain aggregation screens of Martell et al. (2025).

Assay: soluble fraction after stress (log2 fold change); higher = more stays soluble; pooled small domains, quantitative proteomics
Details: stress: 75 degC
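Also: 20 min heating vs room temperature control held 20 min.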

Sequence	soluble fraction (log2)
HMAADWTAIKLAYVNGGMSMRELAQRFHVGAAGLMKRAAKEGWEAERQQNSAKVSNAAQMLIN	0.049
HMAAEEAFPGGRIVQNAEENRLQILFDEIPGEDVRAALKSHGFRWSPKNKAWQRQLTQNAEYDARRILGI	-0.06
HMAAEELTVDKILTAQSFGVTAEAILAKVNDPANTVATLTQADVDRLRAAGVPEGVVTALQARAPQ	0.118
HMAAENAVGARVKALREAMDLSLRDLSERSGVSPTMLSQVERGSTSPTLAVAEKIAAGLDLSLSQLLRL	0.137
HMAAGADEATTVPNVSGDTLNQAIKSLKAEGLGYMLSGAGARVRDQMPEPGAEMTKGSVVMLYMDGDAEVD	-0.0497
HMAAGVESLTEKEFAVASLVGGGASNREIAERLAMSERTVKSHLSSIFRKMDVRDRVQLALAMND	-0.0767
HMAAIPATVDEETYRRLKPMLKQYGILYHEFKPLRSGKKGAVELIFMEKDLALVQELLSRLKKEK	0.432
HMAAIPEQVSEEVVSAVKASGIDPGKVTKEQWTSLLKGRRTALGSSSGKLFMLSKAPVGYTLKAVNA	0.439
HMAAMDMFVKLDALDAELTEQLKALPAEPDDARVERGLALLTDYDHRIKALLTEIFGGENDFDKVL	-3.1
HMAAPPPLSDYRNMQEAEHIRNILLQHHGNVRRAAAALELSRPYLYQKMKQLGINIAELRELSLSHSS	-1.03
HMAASEAESIRILLSEGVDRVHLRKPQSAEADMRRLIEALPPELYPRLTLQDHLHLAGEYGT	-0.0361
HMAATGPLTPREAEIARLAAGHLSNRQIAEQLVVSERTVENHLYRIFIKLAVTGRDDLAAALAATEQ	-2.55
HMAATNVKVPDLKGWDYNNAVGKYGDKLSFVKKSIYSDSVSKGIIIYNARVGETVAQGTTIEVTVSLGPKG	-1.46
HMAAVPYQVKITTEDLRIRTGPGTNHDFTGQYTGKGVFTIVEESEGSGAPIWGRLKSGAGWIGIDPSWSVR	-0.546
HMADAGQTTAATELKQAPNAGSATISQLSAGQTLQIGTRQGAWYQVKTPQGEGWVRMLSVRLQ	-0.0302
HMADEGFRQTVLAVLARWESKIHHGQYNALKAKVMNGNWSSFVKQVVKFQGKFIHPDAAKELLGLFG	-3.5
HMADFIKEIKTNNPRQLLKSILSSFMPRALILELEMLLWNDLKSKPIGEWSNTQIENVGKLLNNWILKPAA	0.162
HMADIWDLLRSEYKLTETDVRMLTDMLPDELMNDFRSEVLALRDRMNRYKVNNPKSYVVTSLKNFIIQHTP	-1.09
HMADKNIIGVLSAADNLGKVRITTANGEKYIITVPDGLSDIVKTYWEEEVSVKYVIEKRRKILVDIDG	-2.04
HMADLIIMSSDATEKQVDKVINKIKNMGFNVNISKGTEKTIIGIIGDTRGISDEVFKIMPGVIEVISILRD	-1.09
HMADLIVFTTDANKEKKVDDETYFYLDVVSDGKLVENYELTEKQYNYIKDLGVGEYVYNEKGKLDSYTAFT	-0.00206
HMADPLQLLEQQRQDYIQAVTEYLNSHPNAKPIWDVMKKDAGYGDMKLTDIPLGILKKLYITLT	-0.65
HMADRVFGHIPGVAVGSIFPDRRSLSQTGVHRPTQAGISGNKTDGADSIVVSGGYRDDRDYGDLIIYTG	-0.107
HMADTFVMPDLVYRRYEPVRGYFERGGFHMGAVKFEPYEGISDGTILRQNPLPGHPLRRRDVISLVVAAS	-2.4
HMADYYETLGVERTASEEDIKRAYRKMSRKYHPDIAGPEFEEKFKEVNTAYEVLSDPDKRRMYDAGVDPND	0.0815
HMADYYSILGLTKNATDIEIKSAFRKLAKIYHPDKNPDPNARVLFEHILKAYDTLINPHSRRRYDSL	-1.31
HMAEELELFHRLISVTGVGPKGALGFLSQLKPQEIILAILSDDVKTLSKAPGVGRKTAQRVILELKDKF	-1.07
HMAEGPYSGKKVEKYPGGMEKRETMYSEGKLTRVTEFHQSGQKKMEVKVDANGQWKRLYWDNNGNPT	-0.0401
HMAEIIVHEINRHLGESDEPVEFPEERREEAVAELLKNFHNDDAFRKMDDGKYEVALDGEAVREAARSLLA	0.175
HMAELTTVQAADILHVSRPFLIKLLDEGQIPYHRVGKHRRIRMEDVMNYKRAIDQQREAVLDQLVAEA	-0.371
